Measurements taken from publication PMC5586252, “PP2A-B′ holoenzyme substrate recognition, regulation and role in cytokinesis” (Cell Discovery, 2017).

How the values were obtained:
[1] = biological target: T1, B′ε regulatory subunit (UniProt Q16537 1-467); experiment: pull-down; about 10 μg GST-tagged B′-binding motif or GST-pCyk4 on glutathione (GS4B) resin; 10 μg holoenzyme, B′ε or PR70 added; 25 mM Tris pH 8.0, 150 mM NaCl, 3 mM DTT; SDS-PAGE, Coomassie; settings: both partners purified
T1 construct: PP2A regulatory subunit B′ε, full-length; prey in a GST pull-down, so probably with the GST tag cleaved by TEV; source: E. coli DH5α, purified (GS4B, anion exchange, gel filtration)
T1 sequence (Q16537 whole entry): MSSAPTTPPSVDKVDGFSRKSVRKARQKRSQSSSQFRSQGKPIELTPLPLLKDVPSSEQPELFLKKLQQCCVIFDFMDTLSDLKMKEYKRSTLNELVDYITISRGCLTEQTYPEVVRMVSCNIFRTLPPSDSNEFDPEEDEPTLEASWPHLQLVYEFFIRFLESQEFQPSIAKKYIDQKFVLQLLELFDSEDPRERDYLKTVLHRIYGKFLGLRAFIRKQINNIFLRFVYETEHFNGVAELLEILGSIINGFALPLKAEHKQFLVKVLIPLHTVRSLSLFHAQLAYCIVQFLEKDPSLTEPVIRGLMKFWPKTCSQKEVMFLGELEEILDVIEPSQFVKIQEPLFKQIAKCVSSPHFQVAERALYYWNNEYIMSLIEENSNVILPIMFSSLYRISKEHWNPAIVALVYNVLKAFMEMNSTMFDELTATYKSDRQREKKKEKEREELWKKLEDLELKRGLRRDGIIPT

[2] = biological target: B′γ1 regulatory subunit (UniProt Q13362-2 1-449); experiment: ITC; 1 mM peptide titrated to 20–50 μM B′γ1; 20 mM HEPES pH 7.5, 200 mM NaCl; VP-ITC; settings: both partners purified

| binding result [1] | Kd [2] | fold stronger binding than the native Cyk4 peptide [2] | Binder |
| --- | --- | --- | --- |
| binds | – | – | GST-pCyk4 (1–177), Plk1-phosphorylated (domain or fragment, human, UniProt Q9H0H5 1-177, looked up, phosphorylated by Plk1: mono- to pentakis-phosphorylated forms; sites of the tetrakis form S149, S157, S164 and S170, also called GST-Cyk4; source: phosphorylated by Plk1; not shown: GST, N-terminal, kept) MDTMMLNVRNLFEQLVRRVEILSEGNEVQFIQLAKDFEDFRKKWQRTDHELGKYKDLLMKAETERSALDVKLKHARNQVDVEIKRRQRAEADCEKLERQIQLIREMLMCDTSGSIQLSEEQKSALAFLNRGQPSSSNAGNKRLSTIDESGSILSDISFDKTDESLDWDSSLVKTFKL |
| – | 1.59 µM | 15 fold | LSTIDEEGS [Cyk4 S149E peptide (synthetic, phosphomimetic)] |
